Results from US10941182 (Amgen, dated 2021).
Starred links: 1 amine or outer side, 2 acyl side, 3 side chain; linkers in the order of their positions; H or OH if unused. Non-standard residues stand in square brackets, D forms with d. *: point of attachment. C18 diacid = O=C(O)CCCCCCCCCCCCCCCCC(=O)*; dBip = N[C@H](Cc1ccc(-c2ccccc2)cc1)C(=O)O; Oic = O=C(O)[C@@H]1C[C@@H]2CCCC[C@@H]2N1; dPhe(4-Cl) = N[C@H](Cc1ccc(Cl)cc1)C(=O)O; Heptadecanoyl = CCCCCCCCCCCCCCCCC(=O)*; Phe(4-I) = N[C@@H](Cc1ccc(I)cc1)C(=O)O; γGlu = O=C(O)[C@H](CCC(=O)[*:2])N[*:1]; 2Nal = N[C@@H](Cc1ccc2ccccc2c1)C(=O)O; Pentadecanoyl = CCCCCCCCCCCCCCC(=O)*; NMeR = CN[C@@H](CCCNC(=N)N)C(=O)O; Tridecanoyl = CCCCCCCCCCCCC(=O)*; hArg = N=C(N)NCCCC[C@H](N)C(=O)O; Tic = O=C(O)[C@@H]1Cc2ccccc2CN1; Cha = N[C@@H](CC1CCCCC1)C(=O)O; NMeL = CN[C@@H](CC(C)C)C(=O)O; Nle = CCCC[C@H](N)C(=O)O; Orn = NCCC[C@H](N)C(=O)O; AEEA = NCCOCCOCC(=O)O

T1: rat APJ receptor (rat, UniProt Q9JHG3 1-377)
T1 sequence (looked up): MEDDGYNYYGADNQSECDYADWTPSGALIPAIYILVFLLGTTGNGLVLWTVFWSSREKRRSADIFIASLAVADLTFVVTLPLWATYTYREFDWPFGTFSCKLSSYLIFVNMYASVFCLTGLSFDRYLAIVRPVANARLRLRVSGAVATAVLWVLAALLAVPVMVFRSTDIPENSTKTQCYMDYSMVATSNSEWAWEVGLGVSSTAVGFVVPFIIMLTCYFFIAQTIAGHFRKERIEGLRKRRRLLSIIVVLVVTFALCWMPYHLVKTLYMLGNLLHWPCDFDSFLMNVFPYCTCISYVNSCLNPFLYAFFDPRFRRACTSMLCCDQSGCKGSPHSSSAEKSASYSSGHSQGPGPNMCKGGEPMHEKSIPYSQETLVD

T2: human APJ receptor (human, UniProt P35414 1-380)
T2 sequence (looked up): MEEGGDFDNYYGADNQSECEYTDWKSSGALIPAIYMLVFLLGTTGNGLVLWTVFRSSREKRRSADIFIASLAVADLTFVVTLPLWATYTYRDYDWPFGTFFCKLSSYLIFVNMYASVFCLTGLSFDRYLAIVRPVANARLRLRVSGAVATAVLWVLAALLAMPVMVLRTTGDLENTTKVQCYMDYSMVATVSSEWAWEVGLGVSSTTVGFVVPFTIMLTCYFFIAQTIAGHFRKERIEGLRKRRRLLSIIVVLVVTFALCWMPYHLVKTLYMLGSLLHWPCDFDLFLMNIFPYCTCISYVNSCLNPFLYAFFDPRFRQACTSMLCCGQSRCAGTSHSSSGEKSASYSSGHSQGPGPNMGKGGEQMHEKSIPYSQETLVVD


What was measured:
[1] = biological target: T1, rat APJ receptor; test: cell-based or functional assay
[2] = biological target: T2, human APJ receptor; test: cell-based or functional assay

| Binder | EC50 Rat APJ Receptor [1] [nM] | EC50 Human APJ Receptor [2] [nM] |
| --- | --- | --- |
| Heptadecanoyl-[γGlu][AEEA][AEEA][Orn]F[hArg][hArg]QRP[hArg][NMeL]SHKG[Oic][Nle][2Nal]-OH (SMILES CCCCCCCCCCCCCCCCC(=O)N[C@@H](CCC(=O)NCCOCCOCC(=O)NCCOCCOCC(=O)N[C@@H](CCCN)C(=O)N[C@@H](Cc1ccccc1)C(=O)N[C@@H](CCCCNC(=N)N)C(=O)N[C@@H](CCCCNC(=N)N)C(=O)N[C@@H](CCC(N)=O)C(=O)N[C@@H](CCCNC(=N)N)C(=O)N1CCC[C@H]1C(=O)N[C@@H](CCCCNC(=N)N)C(=O)N(C)[C@@H](CC(C)C)C(=O)N[C@@H](CO)C(=O)N[C@@H](Cc1c[nH]cn1)C(=O)N[C@@H](CCCCN)C(=O)NCC(=O)N1[C@H](C(=O)N[C@@H](CCCC)C(=O)N[C@@H](Cc2ccc3ccccc3c2)C(=O)O)C[C@@H]2CCCC[C@@H]21)C(=O)O) [apelin polypeptide SEQ ID NO: 259] | 2.09 | 2.59 |
| Heptadecanoyl-[γGlu][AEEA][AEEA][hArg]Q[dR]P[NMeR][Cha]SHKG[Oic][Nle]P[Tic]-OH (SMILES CCCCCCCCCCCCCCCCC(=O)N[C@@H](CCC(=O)NCCOCCOCC(=O)NCCOCCOCC(=O)N[C@@H](CCCCNC(=N)N)C(=O)N[C@@H](CCC(N)=O)C(=O)N[C@H](CCCNC(=N)N)C(=O)N1CCC[C@H]1C(=O)N(C)[C@@H](CCCNC(=N)N)C(=O)N[C@@H](CC1CCCCC1)C(=O)N[C@@H](CO)C(=O)N[C@@H](Cc1c[nH]cn1)C(=O)N[C@@H](CCCCN)C(=O)NCC(=O)N1[C@H](C(=O)N[C@@H](CCCC)C(=O)N2CCC[C@H]2C(=O)N2Cc3ccccc3C[C@H]2C(=O)O)C[C@@H]2CCCC[C@@H]21)C(=O)O) [apelin polypeptide SEQ ID NO: 243] | 10.3 | 1.19 |
| Tridecanoyl-[γGlu][AEEA][AEEA][Orn]F[hArg][hArg]QRP[hArg][NMeL]SHKG[Oic][Nle][2Nal]-OH (SMILES CCCCCCCCCCCCC(=O)N[C@@H](CCC(=O)NCCOCCOCC(=O)NCCOCCOCC(=O)N[C@@H](CCCN)C(=O)N[C@@H](Cc1ccccc1)C(=O)N[C@@H](CCCCNC(=N)N)C(=O)N[C@@H](CCCCNC(=N)N)C(=O)N[C@@H](CCC(N)=O)C(=O)N[C@@H](CCCNC(=N)N)C(=O)N1CCC[C@H]1C(=O)N[C@@H](CCCCNC(=N)N)C(=O)N(C)[C@@H](CC(C)C)C(=O)N[C@@H](CO)C(=O)N[C@@H](Cc1c[nH]cn1)C(=O)N[C@@H](CCCCN)C(=O)NCC(=O)N1[C@H](C(=O)N[C@@H](CCCC)C(=O)N[C@@H](Cc2ccc3ccccc3c2)C(=O)O)C[C@@H]2CCCC[C@@H]21)C(=O)O) [apelin polypeptide SEQ ID NO: 257] | 3.14 | 1.49 |
| Heptadecanoyl-[γGlu][AEEA][AEEA][hArg][dQ][hArg]P[NMeR][Cha]SHKG[Oic][Nle]P[dPhe(4-Cl)]-OH (SMILES CCCCCCCCCCCCCCCCC(=O)N[C@@H](CCC(=O)NCCOCCOCC(=O)NCCOCCOCC(=O)N[C@@H](CCCCNC(=N)N)C(=O)N[C@H](CCC(N)=O)C(=O)N[C@@H](CCCCNC(=N)N)C(=O)N1CCC[C@H]1C(=O)N(C)[C@@H](CCCNC(=N)N)C(=O)N[C@@H](CC1CCCCC1)C(=O)N[C@@H](CO)C(=O)N[C@@H](Cc1c[nH]cn1)C(=O)N[C@@H](CCCCN)C(=O)NCC(=O)N1[C@H](C(=O)N[C@@H](CCCC)C(=O)N2CCC[C@H]2C(=O)N[C@H](Cc2ccc(Cl)cc2)C(=O)O)C[C@@H]2CCCC[C@@H]21)C(=O)O) [apelin polypeptide SEQ ID NO: 242] | 2.27 | 2.19 |
| Heptadecanoyl-[γGlu][AEEA][AEEA][hArg][dR]Q[hArg]P[dR][NMeL]SHKG[Oic][Phe(4-I)]P[dBip]-OH (SMILES CCCCCCCCCCCCCCCCC(=O)N[C@@H](CCC(=O)NCCOCCOCC(=O)NCCOCCOCC(=O)N[C@@H](CCCCNC(=N)N)C(=O)N[C@H](CCCNC(=N)N)C(=O)N[C@@H](CCC(N)=O)C(=O)N[C@@H](CCCCNC(=N)N)C(=O)N1CCC[C@H]1C(=O)N[C@H](CCCNC(=N)N)C(=O)N(C)[C@@H](CC(C)C)C(=O)N[C@@H](CO)C(=O)N[C@@H](Cc1c[nH]cn1)C(=O)N[C@@H](CCCCN)C(=O)NCC(=O)N1[C@H](C(=O)N[C@@H](Cc2ccc(I)cc2)C(=O)N2CCC[C@H]2C(=O)N[C@H](Cc2ccc(-c3ccccc3)cc2)C(=O)O)C[C@@H]2CCCC[C@@H]21)C(=O)O) [apelin polypeptide SEQ ID NO: 263] | 5.91 | 3.99 |
| Pentadecanoyl-[γGlu][AEEA][AEEA][hArg][dR]Q[hArg]P[dR][NMeL]SHKG[Oic][Phe(4-I)]P[dBip]-OH (SMILES CCCCCCCCCCCCCCC(=O)N[C@@H](CCC(=O)NCCOCCOCC(=O)NCCOCCOCC(=O)N[C@@H](CCCCNC(=N)N)C(=O)N[C@H](CCCNC(=N)N)C(=O)N[C@@H](CCC(N)=O)C(=O)N[C@@H](CCCCNC(=N)N)C(=O)N1CCC[C@H]1C(=O)N[C@H](CCCNC(=N)N)C(=O)N(C)[C@@H](CC(C)C)C(=O)N[C@@H](CO)C(=O)N[C@@H](Cc1c[nH]cn1)C(=O)N[C@@H](CCCCN)C(=O)NCC(=O)N1[C@H](C(=O)N[C@@H](Cc2ccc(I)cc2)C(=O)N2CCC[C@H]2C(=O)N[C@H](Cc2ccc(-c3ccccc3)cc2)C(=O)O)C[C@@H]2CCCC[C@@H]21)C(=O)O) [apelin polypeptide SEQ ID NO: 262] | 6.71 | 4.42 |
| Tridecanoyl-[γGlu][AEEA][AEEA][hArg][dR]Q[hArg]P[dR][NMeL]SHKG[Oic][Phe(4-I)]P[dBip]-OH (SMILES CCCCCCCCCCCCC(=O)N[C@@H](CCC(=O)NCCOCCOCC(=O)NCCOCCOCC(=O)N[C@@H](CCCCNC(=N)N)C(=O)N[C@H](CCCNC(=N)N)C(=O)N[C@@H](CCC(N)=O)C(=O)N[C@@H](CCCCNC(=N)N)C(=O)N1CCC[C@H]1C(=O)N[C@H](CCCNC(=N)N)C(=O)N(C)[C@@H](CC(C)C)C(=O)N[C@@H](CO)C(=O)N[C@@H](Cc1c[nH]cn1)C(=O)N[C@@H](CCCCN)C(=O)NCC(=O)N1[C@H](C(=O)N[C@@H](Cc2ccc(I)cc2)C(=O)N2CCC[C@H]2C(=O)N[C@H](Cc2ccc(-c3ccccc3)cc2)C(=O)O)C[C@@H]2CCCC[C@@H]21)C(=O)O) [apelin polypeptide SEQ ID NO: 261] | 9.38 | 4.74 |
| {C18 diacid}-[γGlu][AEEA][AEEA][Orn]F[hArg][hArg]QRP[hArg][NMeL]SHKG[Oic][Nle][2Nal]-OH (SMILES CCCC[C@H](NC(=O)[C@@H]1C[C@@H]2CCCC[C@@H]2N1C(=O)CNC(=O)[C@H](CCCCN)NC(=O)[C@H](Cc1c[nH]cn1)NC(=O)[C@H](CO)NC(=O)[C@H](CC(C)C)N(C)C(=O)[C@H](CCCCNC(=N)N)NC(=O)[C@@H]1CCCN1C(=O)[C@H](CCCNC(=N)N)NC(=O)[C@H](CCC(N)=O)NC(=O)[C@H](CCCCNC(=N)N)NC(=O)[C@H](CCCCNC(=N)N)NC(=O)[C@H](Cc1ccccc1)NC(=O)[C@H](CCCN)NC(=O)COCCOCCNC(=O)COCCOCCNC(=O)CC[C@H](NC(=O)CCCCCCCCCCCCCCCCC(=O)O)C(=O)O)C(=O)N[C@@H](Cc1ccc2ccccc2c1)C(=O)O) [apelin polypeptide SEQ ID NO: 260] | 75 | 48.5 |
| Tridecanoyl-[γGlu][AEEA][AEEA]Q[dR]P[NMeR][Cha]SHKG[Oic][Nle]P[Tic]-OH (SMILES CCCCCCCCCCCCC(=O)N[C@@H](CCC(=O)NCCOCCOCC(=O)NCCOCCOCC(=O)N[C@@H](CCC(N)=O)C(=O)N[C@H](CCCNC(=N)N)C(=O)N1CCC[C@H]1C(=O)N(C)[C@@H](CCCNC(=N)N)C(=O)N[C@@H](CC1CCCCC1)C(=O)N[C@@H](CO)C(=O)N[C@@H](Cc1c[nH]cn1)C(=O)N[C@@H](CCCCN)C(=O)NCC(=O)N1[C@H](C(=O)N[C@@H](CCCC)C(=O)N2CCC[C@H]2C(=O)N2Cc3ccccc3C[C@H]2C(=O)O)C[C@@H]2CCCC[C@@H]21)C(=O)O) [apelin polypeptide SEQ ID NO: 244] | 281 | 10.3 |
| Ac-[hArg][hArg][dQ][hArg]P[dR][NMeL]SHKG[Oic][Phe(4-I)]P[dBip]-OH [apelin polypeptide SEQ ID NO: 19] | 0.757 | 0.533 |
| Pentadecanoyl-[γGlu][AEEA][AEEA][Orn]F[hArg][hArg]QRP[hArg][NMeL]SHKG[Oic][Nle][2Nal]-OH (SMILES CCCCCCCCCCCCCCC(=O)N[C@@H](CCC(=O)NCCOCCOCC(=O)NCCOCCOCC(=O)N[C@@H](CCCN)C(=O)N[C@@H](Cc1ccccc1)C(=O)N[C@@H](CCCCNC(=N)N)C(=O)N[C@@H](CCCCNC(=N)N)C(=O)N[C@@H](CCC(N)=O)C(=O)N[C@@H](CCCNC(=N)N)C(=O)N1CCC[C@H]1C(=O)N[C@@H](CCCCNC(=N)N)C(=O)N(C)[C@@H](CC(C)C)C(=O)N[C@@H](CO)C(=O)N[C@@H](Cc1c[nH]cn1)C(=O)N[C@@H](CCCCN)C(=O)NCC(=O)N1[C@H](C(=O)N[C@@H](CCCC)C(=O)N[C@@H](Cc2ccc3ccccc3c2)C(=O)O)C[C@@H]2CCCC[C@@H]21)C(=O)O) [apelin polypeptide SEQ ID NO: 258] | 2.57 | 1.75 |
